Results as given in PMC3217041 (Steroids, 2011).

Biological target: the molecule itself
Assay: crystal structure

B1: Human placental aromatase (cytochrome P450 aromatase, CYP19A1) (enzyme, UniProt P11511 1-503, looked up)
chain: MVLEMLNPIHYNITSIVPEAMPAATMPVLLLTGLFLLVWNYEGTSSIPGPGYCMGIGPLISHGRFLWMGIGSACNYYNRVYGEFMRVWISGEETLIISKSSSMFHIMKHNHYSSRFGSKLGLQCIGMHEKGIIFNNNPELWKTTRPFFMKALSGPGLVRMVTVCAESLKTHLDRLEEVTNESGYVDVLTLLRRVMLDTSNTLFLRIPLDESAIVVKIQGYFDAWQALLIKPDIFFKISWLYKKYEKSVKDLKDAIEVLIAEKRRRISTEEKLEECMDFATELILAEKRGDLTRENVNQCILEMLIAAPDTMSVSLFFMLFLIAKHPNVEEAIIKEIQTVIGERDIKIDDIQKLKVMENFIYESMRYQPVVDLVMRKALEDDVIDGYPVKKGTNIILNIGRMHRLEFFPKPNEFTLENFAKNVPYRYFQPFGFGPRGCAGKYIAMVMMKAILVTLLRRFHVKTLQGQCVESIQKIHDLSLHPDETKNMLEMIFTPRNSDRCLEH
  binding result: binds
